“Also recorded” adds a separate entry of the source. Where two headings read alike, the source gives them in different places. Blank lines part the entries; values can stand above or below the compound they belong to. Residues, ends and D or L forms follow the SMILES beside them.
What was measured:
[1] = target: ADAM-17 (Homo sapiens, UniProt P78536); experiment: Inhibition of ADAM-17 (TACE) activity; type: biochemical; details: for ADAM 17 inhibition: Example 9, Table 3
Method: (§1) The cleavage enzymes for ECM32 are also potential therapeutic targets. ECM32 sequence at the cleavage site was matched to Elastase (X-VV) and ADAM17 (X-VVAA) as potential enzymes (proteases) able to cleave or bind ECM32. The peptides of SEQ ID NO:1 (ECM32) and SEQ ID NO:2 (ECM30) were tested at levels of 0 mg/L, 12.5 mg/L, 25 mg/L, and 50 mg/L for their effect on cleavage enzymes.
The effect of ECM32 (SEQ ID NO:1), ECM30 (SEQ ID NO:2), ECM25 (SEQ ID NO:5), ECM10 (SEQ ID NO:6), ECM12 (SEQ ID NO:7), and ECM9 (SEQ ID NO:8) on ADAM-17 activity was evaluated.

[2] = target: T1, insulin degradation enzyme (IDE) (Homo sapiens, UniProt P14735); experiment: Inhibition of IDE activity; type: biochemical; details: Example 9, Table 3
[3] = Plasma ECM32 (AdipoR1) level in normal and diabetic rats; type: in vivo; details: rat, 2 mg/kg, 120 min
Method: The effect of ECM32 (SEQ ID NO:1) on the plasma adiponectin and ECM32 levels in normal and diabetic rats was evaluated. The peptide was injected at 2 mg/kg along with a control group.

[4] = test system: normal rats; experiment: Plasma insulin testing in normal rats; type: in vivo, rat
Method: The peptides of SEQ ID NO:1 (ECM32) and SEQ ID NO:2 (ECM30) were tested by treating normal rat groups of 6 to 8 animals at 2 mg/mL in saline intravenously and compared to an untreated control group (0.9% saline solution only). All three groups were fasted on Day 0. Fasted plasma glucose and insulin were measured on Day 1 at 0, 30, 60, 90, and 120 minutes post glucose dose (5 mL/kg). Plasma levels of ECM30 and ECM32 were also measured. Plots of the data are shown in FIG. 1 and FIG. 2, for the insulin level in ng/mL and glucose level in mg/dL, respectively, as a function of time.

[5] = test system: diabetic rats; experiment: Plasma insulin testing in diabetic rats; type: in vivo, rat; details: 2 mg/mL and 10 mg/mL in saline intravenously
Method: The peptide of SEQ ID NO:2 (ECM30) was tested by treating diabetic rat groups of 8 animals at 2 mg/mL and 10 mg/mL in saline intravenously and compared to a control group (bovine serum albumin in saline). All three groups were fasted on Day 0. Fasted plasma glucose and insulin were be measured on Day 1 at 0, 30, 60, 90, and 120 minutes post glucose dose. Plots of the data are shown in FIG. 3 and FIG. 4, for the insulin level and % of pre-dose glucose in ng/ml, respectively, as a function of time.

[6] = test system: Elastase; experiment: Elastase inhibition; type: biochemical; details: Example 4; 0, 12.5, 25, 50 mg/L
Method: as §1

[7] = target: T1, insulin degradation enzyme (IDE); experiment: Inhibition of IDE activity; type: biochemical; details: Example 8; 0-50 μg/ml for ECM32, 0-100 μg/ml for ECM30
Method: The effect of ECM32 (SEQ ID NO:1) and ECM30 (SEQ ID NO:2) on IDE activity over time was evaluated at four different dose levels (0, 12.5, 25, and 50 μg/ml for ECM32 and 0, 25, 50, and 100 μg/ml for ECM30). The results are shown in FIG. 9 for ECM32 (SEQ ID NO:1) and FIG. 10 for ECM30 (SEQ ID NO:2). […]

[8] = test system: normal and diabetic rats; experiment: Effect on plasma glucose level in normal and diabetic rats; type: in vivo, rat; details: injected at 2 mg/kg
Method: The effect of ECM32 (SEQ ID NO:1) and ECM30 (SEQ ID NO:2) on the plasma glucose levels in normal and diabetic rats was evaluated. The peptides were injected at 2 mg/kg along with a control group. […] This could be due to ADAM-17 cleavage of ECM30 into IDE inhibitory forms in vivo.

ADAM-17, sequence (P78536 215-824, species assumed): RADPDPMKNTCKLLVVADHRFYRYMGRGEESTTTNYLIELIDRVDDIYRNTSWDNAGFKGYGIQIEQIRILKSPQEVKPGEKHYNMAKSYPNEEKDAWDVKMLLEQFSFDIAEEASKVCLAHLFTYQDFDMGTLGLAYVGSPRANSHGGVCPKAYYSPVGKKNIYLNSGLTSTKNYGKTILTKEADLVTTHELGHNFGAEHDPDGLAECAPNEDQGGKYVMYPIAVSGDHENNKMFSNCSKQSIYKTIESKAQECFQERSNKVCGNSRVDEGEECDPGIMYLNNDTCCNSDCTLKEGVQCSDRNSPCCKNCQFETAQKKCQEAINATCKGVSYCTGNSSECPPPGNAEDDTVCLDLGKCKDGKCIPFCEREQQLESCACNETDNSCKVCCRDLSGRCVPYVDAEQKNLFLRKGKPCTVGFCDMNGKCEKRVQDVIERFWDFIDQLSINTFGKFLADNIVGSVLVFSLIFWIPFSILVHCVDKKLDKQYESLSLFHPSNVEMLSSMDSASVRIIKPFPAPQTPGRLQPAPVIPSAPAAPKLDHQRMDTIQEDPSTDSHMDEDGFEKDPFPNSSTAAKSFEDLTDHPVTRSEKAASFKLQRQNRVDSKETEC

Compound: SGCTDDTLL [ECM9, ADIPOR1 fragment, 9 amino acids]
ADAM 17 inhibition [1]: no significant effect on ADAM-17 activity | ADAM 17 inhibition ([1]; listed as ECM 9): negative | IDE inhibition [2]: inhibit IDE activity | IDE inhibition ([2]; listed as ECM 9): positive

Compound: CC(C)C[C@H](NC(=O)[C@H](CC(C)C)NC(=O)[C@@H](NC(=O)[C@H](CC(=O)O)NC(=O)[C@H](CC(=O)O)NC(=O)[C@@H](NC(=O)[C@H](CS)NC(=O)CNC(=O)CNC(=O)[C@H](CCC(=O)O)NC(=O)[C@H](CC(C)C)NC(=O)CNC(=O)[C@H](Cc1ccc(O)cc1)NC(=O)[C@H](CCCNC(=N)N)NC(=O)[C@H](Cc1ccccc1)NC(=O)[C@H](CCC(=O)O)NC(=O)[C@H](CCC(N)=O)NC(=O)[C@H](CC(C)C)NC(=O)[C@H](CC(N)=O)NC(=O)[C@H](CO)NC(=O)[C@@H](NC(=O)CNC(=O)[C@H](Cc1ccc(O)cc1)NC(=O)[C@H](Cc1ccccc1)NC(=O)[C@H](Cc1c[nH]cn1)NC(=O)[C@@H](NC(=O)[C@H](Cc1ccccc1)NC(=O)[C@H](C)NC(=O)[C@H](C)NC(=O)[C@H](C)NC(=O)[C@@H](NC(=O)[C@@H](N)C(C)C)C(C)C)C(C)C)C(C)C)[C@@H](C)O)[C@@H](C)O)C(=O)O [ECM32] (H-VVAAAFVHFYGVSNLQEFRYGLEGGCTDDTLL-OH; N-terminus and C-terminus assumed)
level at 2 h ([3]; Diabetic Rats (ZDF), read-out: ECM32 (AdipoR1) in Plasma, Mean ± SD): 95.1 ± 36.1 ng/mL | level at 2 h ([3]; Normal Rats (SD)): 113 ± 18.5 ng/mL

Compound: HFYGVSNLQEFR [ECM12, ADIPOR1 fragment, 12 amino acids]
ADAM 17 inhibition [1]: no significant effect on ADAM-17 activity; also recorded: negative | IDE inhibition [2]: inhibit IDE activity; also recorded: positive

More lines, main results first:

ADAM 17 inhibition ([1]; listed as ECM 25): negative | IDE inhibition [2]: inhibit IDE activity | IDE inhibition ([2]; listed as ECM 25): positive
Compound: HFYGVSNLQEFRYGLEGGCTDDTLL [ECM25, ADIPOR1 C-terminal fragment, 25 amino acids]
ADAM 17 inhibition [1]: no significant effect on ADAM-17 activity

ADAM 17 inhibition ([1]; listed as ECM 10): negative | IDE inhibition [2]: inhibit IDE activity | IDE inhibition ([2]; listed as ECM 10): positive
Compound: VVAAAFVHFY [ECM10, ADIPOR1 fragment, 10 amino acids]
ADAM 17 inhibition [1]: no significant effect on ADAM-17 activity

inhibitory effect on ADAM-17 (% TACE control activity) ([1]; Example 4, 0, 12.5, 25, 50 mg/L): did not significantly inhibit | ADAM 17 inhibition ([1]; listed as ECM 30): negative | IDE activity over time [7]: no significant effect on IDE over time | IDE inhibition [2]: no significant effect on IDE | IDE inhibition ([2]; listed as ECM 30): negative
Compound: HVLVVAAAFVHFYGVSNLQEFRYGLEGGCT (listed as Homo Sapiens) [ECM30, ADIPOR1 fragment, 30 amino acids, uncleaved form]
plasma insulin compared to the control group ([4]; 2 mg/mL in saline intravenously, 0-120 min post glucose dose): marked elevation in the plasma insulin | insulin peak relative to control ([4]; 30 minute time point): twice that observed for the control | plasma insulin [5]: did not increase insulin | ADAM 17 inhibition [1]: no significant effect on ADAM-17 activity | elastase inhibition [6]: Neither ECM30 nor ECM32 showed elastase inhibition | plasma glucose levels [8]: lowered glucose levels, but at longer time points
